Measured values taken from patent publication US20180298101A1.

Legend:
[1] = target: JAK1 activation loop phosphopeptide (Tyr1034 phosphorylated) (human); test: ITC
TYK2 kinase domain (JH1) = TYK2 kinase domain (JH1) (UniProt P29597); test: cell-based or functional assay
[2] = target: JAK1 kinase domain (JH1) (human) (UniProt P23458); test: cell-based or functional assay
JAK2 kinase domain (JH1) = JAK2 kinase domain (JH1) (UniProt O60674); test: cell-based or functional assay
JAK3 kinase domain (JH1) = JAK3 kinase domain (JH1) (UniProt P52333); test: cell-based or functional assay
[3] = target: JAK1-Y1034 phosphopeptide with an alanine substitution at the +3 position (human); test: ITC, alanine-substituted phosphopeptide

## human CIS lacking the N-terminal 34 residues (ΔN34) in trimeric complex with elongin B and elongin C (from UniProt Q9NSE2 35-258; Q15370 1-118; Q15369 17-112)
[1]
  Kd: 2.2 to 10 µM

## hCIS-SH2-BC complex (ternary complex of human GST-CIS-SH2 construct, residues 66-258 with PEST region 174-202 deleted, with Elongin B and Elongin C) (from UniProt Q9NSE2 66-258; Q15370 1-118; P83940 17-112)
TYK2 kinase domain (JH1)
  fold difference of kinase inhibition, JAK1 against TYK2 (in vitro kinase assay): 20 fold
[2]
  IC50 of inhibition of JAK1 phosphorylation of a substrate peptide (in vitro kinase assay): 0.12 µM
  efficiency of JAK1 kinase inhibition against SOCS1 as reference: 100 fold
JAK2 kinase domain (JH1)
  fold difference of kinase inhibition, JAK1 against JAK2 (in vitro kinase assay): 20 fold
JAK3 kinase domain (JH1)
  fold difference of kinase inhibition, JAK1 against JAK3 (in vitro kinase assay): 20 fold

## human CIS lacking both the N-terminal region (residues 1-66) and the PEST motif (ΔNT/ΔPEST) in trimeric complex with elongin B and elongin C (from UniProt Q9NSE2 67-258; Q15370 1-118; Q15369 17-112)
[3]
  fold reduction of binding against the wild-type JAK1-Y1034 phosphopeptide: 4 fold
[2]
  IC50 of inhibition of the JAK1 kinase domain (JH1), in vitro kinase reaction: 0.6 µM
